Assay results reported in patent US20260139055A1.
Changes are numbered by the printed parent chain. In names and notes the source's numbering stands.

B1: wild-type canine IgGB (65) mAb (antibody, part only; not given: variable domains of unnamed mAb, not shown: another chain or arm of the molecule; small tags and cut ends)
constant: ASTTAPSVFPLAPSCGSTSGSTVALACLVSGYFPEPVTVSWNSGSLTSGVHTFPSVLQSSGLYSLSSMVTVPSSRWPSETFTCNVAHPASKTKVDKPVPKRENGRVPRPPDCPKCPAPEMLGGPSVFIFPPKPKDTLLIARTPEVTCVVVDLDPEDPEVQISWFVDGKQMQTAKTQPREEQFNGTYRVVSVLPIGHQDWLKGKQFTCKVNNKALPSPIERTISKARGQAHQPSVYVLPPSREELSKNTVSLTCLIKDFFPPDIDVEWQSNGQQEPESKYRTTPPQLDEDGSYFLYSKLSVDKSRWQRGDTFICAVMHEALHNHYTQESLSHSPGK
B2: canine IgGB (65) mAb with mutation D312L (antibody, part only; not given: Variable domains, not shown: another chain or arm of the molecule)
constant: B1 constant with D198L
B3: canine IgGB (65) mAb with mutation Q311K (antibody, part only; not given: Variable domains, not shown: another chain or arm of the molecule)
constant: B1 constant with Q197K
B4: canine IgGB (65) mAb with mutation D312C (antibody, part only; not given: variable domains of unnamed mAb, not shown: another chain or arm of the molecule)
constant: B1 constant with D198C
B5: canine IgGB (65) mAb with mutation Q311D (antibody, part only; not given: Variable domains, not shown: another chain or arm of the molecule)
constant: B1 constant with Q197D
B6: canine IgGB (65) mAb with mutation D312S (antibody, part only; not given: variable domains of unnamed mAb, not shown: another chain or arm of the molecule)
constant: B1 constant with D198S
B7: canine IgGB (65) mAb with mutation Q311P (antibody, part only; not given: variable domains of unnamed mAb, not shown: another chain or arm of the molecule)
constant: B1 constant with Q197P
B8: canine IgGB (65) mAb with mutation T286Q (antibody, part only; not given: Variable domains, not shown: another chain or arm of the molecule)
constant: B1 constant with T172Q
B9: canine IgGB (65) mAb with mutation D312M (antibody, part only; not given: Variable domains, not shown: another chain or arm of the molecule)
constant: B1 constant with D198M
B10: canine IgGB (65) mAb with mutation Q311N (antibody, part only; not given: variable domains of unnamed mAb, not shown: another chain or arm of the molecule)
constant: B1 constant with Q197N
B11: canine IgGB (65) mAb with mutation T286P (antibody, part only; not given: Variable domains, not shown: another chain or arm of the molecule)
constant: B1 constant with T172P
B12: canine IgGB (65) mAb with mutation Q311Y (antibody, part only; not given: variable domains of unnamed mAb, not shown: another chain or arm of the molecule)
constant: B1 constant with Q197Y
B13: canine IgGB (65) mAb with mutation D312A (antibody, part only; not given: variable domains of unnamed mAb, not shown: another chain or arm of the molecule)
constant: B1 constant with D198A
B14: canine IgGB (65) mAb with mutation T286R (antibody, part only; not given: Variable domains, not shown: another chain or arm of the molecule)
constant: B1 constant with T172R
B15: canine IgGB (65) mAb with mutation T286V (antibody, part only; not given: variable domains of unnamed mAb, not shown: another chain or arm of the molecule)
constant: B1 constant with T172V
B16: canine IgGB (65) mAb with mutation T286D (antibody, part only; not given: Variable domains, not shown: another chain or arm of the molecule)
constant: B1 constant with T172D
B17: canine IgGB (65) mAb with mutation Q311F (antibody, part only; not given: Variable domains, not shown: another chain or arm of the molecule)
constant: B1 constant with Q197F
B18: canine IgGB (65) mAb with mutation T286C (antibody, part only; not given: variable domains of unnamed mAb, not shown: another chain or arm of the molecule)
constant: B1 constant with T172C
B19: canine IgGB (65) mAb with mutation T286N (antibody, part only; not given: Variable domains, not shown: another chain or arm of the molecule)
constant: B1 constant with T172N
B20: canine IgGB (65) mAb with mutation Q311G (antibody, part only; not given: Variable domains, not shown: another chain or arm of the molecule)
constant: B1 constant with Q197G
B21: canine IgGB (65) mAb with mutation Q311T (antibody, part only; not given: Variable domains, not shown: another chain or arm of the molecule)
constant: B1 constant with Q197T
B22: canine IgGB (65) mAb with mutation T286S (antibody, part only; not given: Variable domains, not shown: another chain or arm of the molecule)
constant: B1 constant with T172S
B23: canine IgGB (65) mAb with mutation D312E (antibody, part only; not given: Variable domains, not shown: another chain or arm of the molecule)
constant: B1 constant with D198E
B24: canine IgGB (65) mAb with mutation T286E (antibody, part only; not given: Variable domains, not shown: another chain or arm of the molecule)
constant: B1 constant with T172E
B25: canine IgGB (65) mAb with mutation Q311R (antibody, part only; not given: Variable domains, not shown: another chain or arm of the molecule)
constant: B1 constant with Q197R
B26: canine IgGB (65) mAb with mutation Q311L (antibody, part only; not given: Variable domains, not shown: another chain or arm of the molecule)
constant: B1 constant with Q197L
B27: canine IgGB (65) mAb with mutation Q311W (antibody, part only; not given: variable domains of unnamed mAb, not shown: another chain or arm of the molecule)
constant: B1 constant with Q197W
B28: canine IgGB (65) mAb with mutation D312F (antibody, part only; not given: Variable domains, not shown: another chain or arm of the molecule)
constant: B1 constant with D198F
B29: canine IgGB (65) mAb with mutation Q311M (antibody, part only; not given: Variable domains, not shown: another chain or arm of the molecule)
constant: B1 constant with Q197M
B30: canine IgGB (65) mAb with mutation Q311E (antibody, part only; not given: Variable domains, not shown: another chain or arm of the molecule)
constant: B1 constant with Q197E
B31: canine IgGB (65) mAb with mutation D312Q (antibody, part only; not given: Variable domains, not shown: another chain or arm of the molecule)
constant: B1 constant with D198Q
B32: canine IgGB (65) mAb with mutation D312V (antibody, part only; not given: variable domains of unnamed mAb, not shown: another chain or arm of the molecule)
constant: B1 constant with D198V
B33: canine IgGB (65) mAb with mutation D312K (antibody, part only; not given: variable domains of unnamed mAb, not shown: another chain or arm of the molecule)
constant: B1 constant with D198K
B34: canine IgGB (65) mAb with mutation Q311C (antibody, part only; not given: Variable domains, not shown: another chain or arm of the molecule)
constant: B1 constant with Q197C
B35: canine IgGB (65) mAb with mutation D312I (antibody, part only; not given: Variable domains, not shown: another chain or arm of the molecule)
constant: B1 constant with D198I
B36: canine IgGB (65) mAb with mutation Q311S (antibody, part only; not given: variable domains of unnamed mAb, not shown: another chain or arm of the molecule)
constant: B1 constant with Q197S
B37: canine IgGB (65) mAb with mutation Q311I (antibody, part only; not given: variable domains of unnamed mAb, not shown: another chain or arm of the molecule)
constant: B1 constant with Q197I
B38: canine IgGB (65) mAb with mutation D312R (antibody, part only; not given: variable domains of unnamed mAb, not shown: another chain or arm of the molecule)
constant: B1 constant with D198R
B39: canine IgGB (65) mAb with mutation Q311H (antibody, part only; not given: variable domains of unnamed mAb, not shown: another chain or arm of the molecule)
constant: B1 constant with Q197H
B40: canine IgGB (65) mAb with mutation D312T (antibody, part only; not given: Variable domains, not shown: another chain or arm of the molecule)
constant: B1 constant with D198T
B41: canine IgGB (65) mAb with mutation D312G (antibody, part only; not given: Variable domains, not shown: another chain or arm of the molecule)
constant: B1 constant with D198G
B42: canine IgGB (65) mAb with mutation D312N (antibody, part only; not given: Variable domains, not shown: another chain or arm of the molecule)
constant: B1 constant with D198N
B43: canine IgGB (65) mAb with mutation D312H (antibody, part only; not given: Variable domains, not shown: another chain or arm of the molecule)
constant: B1 constant with D198H

molecular target: canine FcRn complex (FcRn-alpha subunit and beta-microglobulin), His-tagged, biotin labeled (canine); assay: SPR (Biacore), biotin-FcRn captured on SA surface, IgG flowed over, pH 6, 15 C

Kd [nM] | Binder
30.7 | B1
12.1 | B2
6.23 | B3
19 | B4
13.3 | B5
14.8 | B6
21.2 | B7
8.58 | B8
16.2 | B9
10.1 | B10
6.73 | B11
2.61 | B12
10.3 | B13
4.73 | B14
8.36 | B15
6.83 | B16
33 | B17
8.19 | B18
6.32 | B19
8.42 | B20
10.7 | B21
6.68 | B22

Kd [nM] | Binder
14.1 | B23
8.66 | B24
15.2 | B25
19.1 | B26
2.49 | B27
21.9 | B28
13.1 | B29
9.39 | B30
9.97 | B31
14.1 | B32
24 | B33
10.3 | B34
21.5 | B35
8.7 | B36
7.94 | B37
23.1 | B38
6.66 | B39
10.6 | B40
26.8 | B41
17.1 | B42
9.72 | B43
